The results in this text go back to the supplement of paper PMC7877785.

The data set can be described thus: self-splicing fitness, log relative to wild type (ln ratio); higher = more splicing; Tetrahymena group I intron in knt gene, E. coli kanamycin selection, DiMSum; sequences stand for … in CUCUCU…GGAGGGAAAAGUUAUCAGGCAUGCACCUGGUAGCUAGUCUUUAAACCAAUAGAUUGCAUCGGUUUAAAAGGCAAGACCGUCAAAUUGCGGGAAAGGGGUCAACAGCCGUUCAGUACCAAGUCUCAGGGGAAACUUUGAGAUGGCCUUGCAAAGGGUAUGGUAAUAAGCUGACGGACAUGGUCCUAACCACGCAGCCAAGUCCUAAGUCAACAGAUCUUCUGUUGAUAUGGAUGCAGUUCACAGACUAAAUGUCGGUCGGGGAAGAUGUAUUCUUCUCAUAAGAUAUAGUCGGACCUCUCCUUAAUGGGAGCUAGCGGAUGAAGUGAUGCAACACUGGAGCCGCUGGGAACUAAUUUGUAUGCGAAAGUAUAUUGAUUAGUUUUGGAGUACUCGUGGUCG
The essentials: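 Six replicate transformations of E. coli BL21(DE3) with a pET-22b(+) library were grown overnight at 37°C or 30°C. The library randomised all eight P1ex-region intron nucleotides, the intron lying in the knt kanamycin-resistance gene, and plates were LB agar with or without 25 μg/mL kanamycin plus 100 μg/mL carbenicillin, 50 μM IPTG and 0.2% rhamnose. Pooled colonies were amplicon-sequenced on an Illumina HiSeq 2500, and fitness is the DiMSum error-weighted combination of wild-type-normalised replicate fold changes, kanamycin versus none.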

± gives the uncertainty stated by the source.

For the sequence AGUAAGCAAUAUUACGCUAU, the “self-splicing fitness (ln)” value by setting is: (30 °C) -4.08 ± 0.32; (37 °C) -1.41 ± 0.13.

On to AGUAAGCAAUAUUACGCUGA, for which the “self-splicing fitness (ln)” value (30 °C) is -1.98 ± 0.33 and the “self-splicing fitness (ln)” value (37 °C) was -2.29 ± 0.31.

Turning to AGUAAGCAAUAUUACGGACU, the “self-splicing fitness (ln)” value reads like this: (30 °C) -1.57 ± 0.15; (37 °C) 0.25 ± 0.17.

AGUAAGCAAUAUUACGGAGG: the “self-splicing fitness (ln)” value by setting is: (30 °C) -2.9 ± 0.28; (37 °C) -2.29 ± 0.26.

For the sequence AGUAAGCAAUAUUACGGCGU, the “self-splicing fitness (ln)” value is, setting by setting: (30 °C) -0.683 ± 0.073; (37 °C) 0.246 ± 0.095.

Take AGUAAGCAAUAUUACGGUAC: the “self-splicing fitness (ln)” value runs as follows: (30 °C) -2.95 ± 0.24; (37 °C) -2.27 ± 0.31.

AGUAAGCAAUAUUACGGUGU: the “self-splicing fitness (ln)” value was -2.92 ± 0.14 (30 °C) and -2.44 ± 0.16 (37 °C).

In the case of AGUAAGCAAUAUUACGGUUA, the “self-splicing fitness (ln)” value was -0.833 ± 0.11 (30 °C) and -0.477 ± 0.092 (37 °C).

Consider AGUAAGCAAUAUUACGGUUC, for which the “self-splicing fitness (ln)” value by setting is: (30 °C) -2.9 ± 0.19; (37 °C) -1.55 ± 0.44.

Take AGUAAGCAAUAUUACGGUUG: the “self-splicing fitness (ln)” value is -3.09 ± 0.23 (30 °C) and -2.51 ± 0.25 (37 °C).

For the sequence AGUAAGCAAUAUUACGUAAA, the “self-splicing fitness (ln)” value is -3.2 ± 0.34 (30 °C) and -1.75 ± 0.21 (37 °C).

Turning to AGUAAGCAAUAUUACGUAAC, where the note is “30 °C”, the “self-splicing fitness (ln)” value was -2.48 ± 0.23.

As for AGUAAGCAAUAUUACGUACA, the “self-splicing fitness (ln)” value (30 °C) was -0.932 ± 0.1 and the “self-splicing fitness (ln)” value (37 °C) was 0.0596 ± 0.13.

As to AGUAAGCAAUAUUACGUACU, the “self-splicing fitness (ln)” value was -2.29 ± 0.12 (30 °C) and -1.76 ± 0.18 (37 °C).

Consider AGUAAGCAAUAUUACGUGAG, for which the “self-splicing fitness (ln)” value is -3.88 ± 0.15 (30 °C) and -1.07 ± 0.11 (37 °C).

For AGUCAGCAAUAUUACGAAGU, the “self-splicing fitness (ln)” value runs as follows: (30 °C) -1.48 ± 0.084; (37 °C) -0.0211 ± 0.096.

As to AGUCAGCAAUAUUACGACAG, the “self-splicing fitness (ln)” value was -0.781 ± 0.12 (30 °C) and -0.399 ± 0.14 (37 °C).

In the case of AGUCAGCAAUAUUACGACCC, the “self-splicing fitness (ln)” value (30 °C) was -0.401 ± 0.19 and the “self-splicing fitness (ln)” value (37 °C) was -0.72 ± 0.29.

As for AGUCAGCAAUAUUACGAGGU, the “self-splicing fitness (ln)” value reads like this: (30 °C) -3.4 ± 0.26; (37 °C) -2.62 ± 0.24.

For the sequence AGUCAGCAAUAUUACGAUAU, the “self-splicing fitness (ln)” value reads like this: (30 °C) -0.289 ± 0.096; (37 °C) 0.475 ± 0.11.

Turning to AGUCAGCAAUAUUACGAUUA, the “self-splicing fitness (ln)” value (30 °C) was 0.011 ± 0.11 and the “self-splicing fitness (ln)” value (37 °C) was -0.381 ± 0.15.

For AGUCAGCAAUAUUACGCAUU, the “self-splicing fitness (ln)” value is -0.401 ± 0.069 (30 °C) and -0.421 ± 0.085 (37 °C).

With AGUCAGCAAUAUUACGCCUA, the “self-splicing fitness (ln)” value by setting is: (30 °C) -0.754 ± 0.12; (37 °C) 0.18 ± 0.15.

As for AGUCAGCAAUAUUACGCGGU, the “self-splicing fitness (ln)” value runs as follows: (30 °C) -2.25 ± 0.15; (37 °C) -1.45 ± 0.11.

On to AGUCAGCAAUAUUACGCUCC, for which the “self-splicing fitness (ln)” value by setting is: (30 °C) -0.39 ± 0.17; (37 °C) -0.919 ± 0.16.

AGUCAGCAAUAUUACGGCAU: the “self-splicing fitness (ln)” value reads like this: (30 °C) 0.126 ± 0.066; (37 °C) -0.106 ± 0.074.

With AGUCAGCAAUAUUACGGCGU, the “self-splicing fitness (ln)” value was found to be 0.0847 ± 0.073 (30 °C) and 0.74 ± 0.096 (37 °C).

On to AGUCAGCAAUAUUACGGUCC, for which the “self-splicing fitness (ln)” value was -0.805 ± 0.096 (30 °C) and 0.201 ± 0.13 (37 °C).

On to AGUCAGCAAUAUUACGUACC, for which the “self-splicing fitness (ln)” value (30 °C) is -0.711 ± 0.15 and the “self-splicing fitness (ln)” value (37 °C) worked out at 0.605 ± 0.21.

Regarding AGUCAGCAAUAUUACGUACU, the “self-splicing fitness (ln)” value was -1.92 ± 0.13 (30 °C) and -0.881 ± 0.13 (37 °C).

For the sequence AGUCAGCAAUAUUACGUGCC, the “self-splicing fitness (ln)” value is -1.02 ± 0.077 (30 °C) and 0.0632 ± 0.095 (37 °C).

Take AGUCAGCAAUAUUACGUGGA: the “self-splicing fitness (ln)” value (30 °C) was -2.73 ± 0.19 and the “self-splicing fitness (ln)” value (37 °C) is -2.41 ± 0.15.

On to AGUGAGCAAUAUUACGAACC, for which the “self-splicing fitness (ln)” value was -0.739 ± 0.16 (30 °C) and -0.869 ± 0.24 (37 °C).

On to AGUGAGCAAUAUUACGACUC, for which the “self-splicing fitness (ln)” value (30 °C) was -3.04 ± 0.37.
